± gives the standard deviation of the averaged measurements.
test system: ATP; experiment: switch fluorescence ratio, 500 uM ATP over buffer (Cy3 cluster intensity, sum of 5 cycles each) (fold (ratio)); higher = stronger signal-on switching upon ATP binding; sequences stand for … in TCGTCGGCAGCGTCAGATGTGTATAAGAGACAGTTTTTTTTTTTTTTTTTTTTTTTTT…TC; conditions: aptamer strand: ATP DNA aptamer (quencher-CACCTGGGGGAGTATTGCGGAGGAAGG + anchor), 100 nM annealed; ATP concentration: 500 uM
Outline: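 Five buffer/ATP imaging cycles were run on Cy3-labelled switching-strand clusters on a modified Illumina MiSeq flow-cell, with NaOH stripping and re-annealing between cycles. In each cycle, clusters annealed to 100 nM quencher-labelled ATP aptamer were imaged in selection buffer, then after 15 min with 500 uM ATP at 22 °C. Per cluster, the fluorescence ratio is summed target-cycle over summed buffer-cycle Cy3 intensity, averaged per switch-domain sequence. Only clusters within 100-1000 RFU were kept.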
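Also: ATP exposure 15 min at 22 °C before imaging.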

Row | Sequence | switch fluorescence ratio
1 | GGCTGGGGCT | 0.973 ± 0.026
2 | GGCTGGGTAC | 1.12 ± 0.24
3 | GGCTGGTAGA | 1 ± 0.02
4 | GGCTGGTTTC | 0.9969 ± 0.0089
5 | GGCTGTCGGA | 0.997 ± 0.0034
6 | GGCTGTGGGT | 0.987 ± 0.052
7 | GGCTGTTAAG | 0.983 ± 0.0028
8 | GGCTGTTCGG | 0.988 ± 0.036
9 | GGCTGTTGGT | 0.9655 ± 0.0072
10 | GGCTTAGGCA | 1.01 ± 0.04
11 | GGCTTCGGGG | 0.98028 ± 0.00081
12 | GGCTTGGAGC | 0.996 ± 0.025
13 | GGCTTGGGAG | 0.982 ± 0.019
14 | GGCTTGGGCG | 0.983 ± 0.061
15 | GGCTTTACTA | 1 ± 0.012
16 | GGCTTTGAAG | 0.9951 ± 0.0023
17 | GGCTTTGGGT | 0.991 ± 0.014
18 | GGCTTTGGTC | 1.018 ± 0.0099
19 | GGCTTTGTGG | 0.992 ± 0.02
20 | GGCTTTTTTG | 0.9954 ± 0.0081
21 | GGGAAAAGGG | 0.998 ± 0.035
22 | GGGAAAATGT | 1.02 ± 0.038
23 | GGGAAACCGG | 1.06 ± 0.018
24 | GGGAAACTAA | 1.01 ± 0.031
25 | GGGAAAGCG | 1.04 ± 0.036
26 | GGGAAAGGTT | 1.01 ± 0.026

Row | Sequence | switch fluorescence ratio
27 | GGGAAATAGC | 1.06 ± 0.036
28 | GGGAAATTGC | 1.04 ± 0.074
29 | GGGAAGAACT | 1.06 ± 0.014
30 | GGGAAGGGAG | 0.983 ± 0.028
31 | GGGAAGGGGA | 1.04 ± 0.12
32 | GGGAAGGGGG | 1 ± 0.034
33 | GGGAAGTGTG | 0.979 ± 0.024
34 | GGGAAGTTGG | 0.986 ± 0.013
35 | GGGAATACAT | 1.01 ± 0.028
36 | GGGAATCAAG | 0.9862 ± 0.0097
37 | GGGAATCGGT | 0.978 ± 0.058
38 | GGGAATCTGC | 1.01 ± 0.026
39 | GGGAATGGAT | 1.01 ± 0.029
40 | GGGAATGGGG | 0.992 ± 0.044
41 | GGGAATGGTG | 1.035 ± 0.0095
42 | GGGAATGTT | 0.992 ± 0.022
43 | GGGAATGTTC | 1.01 ± 0.014
44 | GGGAATTACC | 0.986 ± 0.024
45 | GGGAATTCGA | 1 ± 0.036
46 | GGGACAATGA | 1 ± 0.038
47 | GGGACAGGGA | 1.05 ± 0.066
48 | GGGACAGTGG | 1 ± 0.015
49 | GGGACATTTT | 1.026 ± 0.0086
50 | GGGACCGAAC | 1.13 ± 0.029
51 | GGGACCGACT | 1.05 ± 0.016
52 | GGGACCGTGC | 1.07 ± 0.096

Row | Sequence | switch fluorescence ratio
53 | GGGACCGTGT | 1.01 ± 0.028
54 | GGGACGGAAC | 1.12 ± 0.03
55 | GGGACGGGGA | 0.978 ± 0.026
56 | GGGACTCGTG | 1.04 ± 0.053
57 | GGGACTGGGT | 0.999 ± 0.012
58 | GGGACTTTCT | 1.01 ± 0.0092
59 | GGGAGAAAGG | 1.011 ± 0.0067
60 | GGGAGAACGA | 0.984 ± 0.015
61 | GGGAGAAGGA | 1.05 ± 0.085
62 | GGGAGAAGGT | 0.967 ± 0.011
63 | GGGAGAGCGT | 0.966 ± 0.018
64 | GGGAGAGGGT | 1.02 ± 0.016
65 | GGGAGAGTGG | 0.9868 ± 0.0015
66 | GGGAGATATG | 0.9788 ± 0.0095
67 | GGGAGATTAA | 0.975 ± 0.013
68 | GGGAGATTTT | 1.01 ± 0.035
69 | GGGAGCATCG | 0.9709 ± 0.0055
70 | GGGAGCGCTT | 1.03 ± 0.012
71 | GGGAGGAGAC | 1.02 ± 0.053
72 | GGGAGGCAGA | 0.989 ± 0.065
73 | GGGAGGGAAA | 1.04 ± 0.056
74 | GGGAGGGGG | 0.965 ± 0.045
75 | GGGAGGGTTT | 0.98 ± 0.022
76 | GGGAGGTAGG | 0.991 ± 0.01
77 | GGGAGGTGGG | 1.009 ± 0.0014
78 | GGGAGTAAAG | 0.989 ± 0.013

Row | Sequence | switch fluorescence ratio
79 | GGGAGTAAGG | 1.024 ± 0.0025
80 | GGGAGTCAGC | 1.012 ± 0.008
81 | GGGAGTCTTC | 1.04 ± 0.1
82 | GGGAGTGGCA | 1.08 ± 0.15
83 | GGGAGTTAAA | 0.972 ± 0.013
84 | GGGAGTTGG | 0.992 ± 0.017
85 | GGGAGTTGGG | 1.02 ± 0.044
86 | GGGATAACAG | 1.04 ± 0.011
87 | GGGATAAGCC | 1 ± 0.012
88 | GGGATAAGTT | 0.983 ± 0.035
89 | GGGATAGATA | 1.03 ± 0.022
90 | GGGATAGGAA | 0.993 ± 0.03
91 | GGGATAGGCC | 1.02 ± 0.032
92 | GGGATAGGGG | 0.996 ± 0.024
93 | GGGATAGTGC | 1.01 ± 0.021
94 | GGGATATCAG | 0.994 ± 0.017
95 | GGGATATCAT | 0.9903 ± 0.0048
96 | GGGATCAAGA | 0.998 ± 0.023
97 | GGGATCAGTA | 0.9602 ± 0.0055
98 | GGGATCGTTT | 0.982 ± 0.046
99 | GGGATGAACG | 1.04 ± 0.021
100 | GGGATGGCAT | 0.995 ± 0.034
101 | GGGATGGCCT | 0.959 ± 0.011
102 | GGGATGTGCG | 1.04 ± 0.027
103 | GGGATTAAGG | 0.999 ± 0.021
104 | GGGATTCCGT | 1.05 ± 0.042

Row | Sequence | switch fluorescence ratio
105 | GGGATTGCGG | 1.12 ± 0.23
106 | GGGATTGGGT | 1.01 ± 0.021
107 | GGGATTTATA | 0.995 ± 0.019
108 | GGGATTTGGT | 1.02 ± 0.02
109 | GGGATTTTGC | 0.952 ± 0.015
110 | GGGCAAGGTC | 1.03 ± 0.034
111 | GGGCAAGGTG | 1.21 ± 0.12
112 | GGGCAATATG | 1.17 ± 0.06
113 | GGGCACATCC | 1.02 ± 0.025
114 | GGGCACCAGG | 1.21 ± 0.03
115 | GGGCAGCCTT | 0.99337 ± 0.0002
116 | GGGCAGGGGA | 1.17 ± 0.35
117 | GGGCAGTAGG | 1 ± 0.025
118 | GGGCAGTTCG | 1.02 ± 0.027
119 | GGGCATGAAG | 1.016 ± 0.0066
120 | GGGCATGTCT | 1.03 ± 0.042
121 | GGGCATTGCT | 0.9747 ± 0.0069
122 | GGGCCAGGGA | 1 ± 0.024
123 | GGGCCAGTAT | 0.963 ± 0.017
124 | GGGCCATCGT | 0.993 ± 0.026
125 | GGGCCCAAAG | 1 ± 0.021
126 | GGGCCCGAAT | 0.992 ± 0.047
127 | GGGCCCGCGT | 0.98 ± 0.011
128 | GGGCCCTTCG | 1.018 ± 0.0047
129 | GGGCCGGAAA | 1.01 ± 0.049
130 | GGGCCGGGGT | 0.993 ± 0.04

Row | Sequence | switch fluorescence ratio
131 | GGGCCGTAGG | 0.99 ± 0.037
132 | GGGCCGTTGG | 0.976 ± 0.042
133 | GGGCCTCGGA | 0.988 ± 0.042
134 | GGGCGAGAGG | 1.02 ± 0.033
135 | GGGCGAGCCT | 1.028 ± 0.008
136 | GGGCGAGTAT | 1.016 ± 0.0029
137 | GGGCGATGCA | 1.02 ± 0.028
138 | GGGCGCCATA | 0.948 ± 0.015
139 | GGGCGGAGCG | 0.999 ± 0.036
140 | GGGCGGGATT | 1 ± 0.059
141 | GGGCGGGCAG | 0.997 ± 0.026
142 | GGGCGGGCGC | 1.06 ± 0.027
143 | GGGCGTTATG | 1.0238 ± 0.00033
144 | GGGCTAAAGG | 1.04 ± 0.03
145 | GGGCTAAATC | 1.01 ± 0.06
146 | GGGCTAACCT | 1.32 ± 0.043
147 | GGGCTAATAA | 1.02 ± 0.039
148 | GGGCTAATGT | 0.988 ± 0.047
149 | GGGCTACTTG | 0.9881 ± 0.0021
150 | GGGCTAGCCA | 0.979 ± 0.011
151 | GGGCTATGTC | 1.01 ± 0.038
152 | GGGCTATTTA | 1 ± 0.011
153 | GGGCTCTAAA | 1 ± 0.018

— the supplement of paper PMC10126150
